Earlier results on one substance are cited in article PMC3403913.

The Kd is a measure of binding affinity in units of concentration.

The series deals with factor Va (Homo sapiens) (UniProt P12259).
Chain of UniProt P12259 (P12259 29-737, chain 1 of 2): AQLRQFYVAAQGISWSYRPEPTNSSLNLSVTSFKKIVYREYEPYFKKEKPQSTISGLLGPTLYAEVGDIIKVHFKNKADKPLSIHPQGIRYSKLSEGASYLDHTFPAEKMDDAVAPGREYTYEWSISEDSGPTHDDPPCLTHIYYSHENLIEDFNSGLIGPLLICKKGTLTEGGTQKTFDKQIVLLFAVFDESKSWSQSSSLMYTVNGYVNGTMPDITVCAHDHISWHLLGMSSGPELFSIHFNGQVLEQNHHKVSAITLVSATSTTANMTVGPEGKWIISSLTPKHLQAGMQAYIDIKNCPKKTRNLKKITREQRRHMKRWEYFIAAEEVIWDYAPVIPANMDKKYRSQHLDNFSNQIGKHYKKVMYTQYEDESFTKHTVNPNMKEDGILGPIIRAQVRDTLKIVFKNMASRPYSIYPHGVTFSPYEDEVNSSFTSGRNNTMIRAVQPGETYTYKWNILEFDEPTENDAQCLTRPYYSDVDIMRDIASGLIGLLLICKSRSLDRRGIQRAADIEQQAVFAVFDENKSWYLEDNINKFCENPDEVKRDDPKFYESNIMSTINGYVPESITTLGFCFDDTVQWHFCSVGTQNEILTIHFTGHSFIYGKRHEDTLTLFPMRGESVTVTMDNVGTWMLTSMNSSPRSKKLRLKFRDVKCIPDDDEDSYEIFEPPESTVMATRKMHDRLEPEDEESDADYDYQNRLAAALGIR
Chain of UniProt P12259 (P12259 1574-2224, chain 2 of 2): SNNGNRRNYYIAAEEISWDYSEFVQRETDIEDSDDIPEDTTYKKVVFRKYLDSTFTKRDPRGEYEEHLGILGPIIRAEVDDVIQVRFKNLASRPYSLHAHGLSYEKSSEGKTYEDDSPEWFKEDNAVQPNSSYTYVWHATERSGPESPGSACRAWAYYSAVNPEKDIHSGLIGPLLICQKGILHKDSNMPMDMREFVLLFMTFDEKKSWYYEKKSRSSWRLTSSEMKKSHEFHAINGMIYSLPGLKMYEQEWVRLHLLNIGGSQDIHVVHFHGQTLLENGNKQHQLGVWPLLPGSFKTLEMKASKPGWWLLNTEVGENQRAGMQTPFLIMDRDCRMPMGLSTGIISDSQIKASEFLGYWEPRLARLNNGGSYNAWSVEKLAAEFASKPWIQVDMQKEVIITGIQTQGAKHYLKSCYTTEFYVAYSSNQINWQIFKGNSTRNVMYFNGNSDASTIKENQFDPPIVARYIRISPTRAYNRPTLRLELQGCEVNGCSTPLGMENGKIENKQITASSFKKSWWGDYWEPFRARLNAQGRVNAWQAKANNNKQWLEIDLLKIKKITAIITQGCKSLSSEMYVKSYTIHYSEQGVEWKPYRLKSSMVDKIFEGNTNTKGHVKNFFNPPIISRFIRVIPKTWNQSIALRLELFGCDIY

In the case of factor Xa (from UniProt P00742), the Kd is 0.5 nM.
